Test results reported in US20210395319A1 (OLIGOMERIX, published 2021).

Target: the molecule itself
Test: self-association: overnight incubation at 37 °C in pH neutral buffer, SDS-PAGE on a 4-20% gradient gel
Protocol: Protein preparations of the N-terminal (21.5 kDa) and C-terminal (18.5 kDa) were incubated at 4 μM concentration in pH neutral buffer and incubated overnight at 37° C.

B1: N-terminal portion of tau protein (amino acids 1-184) (other, UniProt P10636-8 1-184, looked up)
chain: MAEPRQEFEVMEDHAGTYGLGDRKDQGGYTMHQDQEGDTDAGLKESPLQTPTEDGSEEPGSETSDAKSTPTAEDVTAPLVDEGAPGKQAAAQPHTEIPEGTTAEEAGIGDTPSLEDEAAGHVTQARMVSKSKDGTGSDDKKAKGADGKTKIATPRGAAPPGQKGQANATRIPAKTPPAPKTPPS
notes: range 1-184; Printed mass 21.5 kDa, charge approximately -7.2; also called tau fragment (21.5 KD) that encompasses the N-terminus; N-terminal (21.5 kDa)
  binding result: no binding (tested: 4 µM)
